Some targets named below: MAGI3_5, Q5TCQ9; PARD3_1, Q8TEW0; PARD3B_2, Q8TEW8; PDZD9, Q8IXQ8; MAGI1_5, Q96QZ7; LMO7, Q8WWI1; CNKSR3, Q6P9H4; SCRIB_4, Q14160; MAGI1_6, Q96QZ7.
Experiment in all cases: holdup assay
Design in all cases: key: below the threshold = too weak to quantify, mostly under pKd 3.1 to 4
Common to all, as to settings: plain residues with an end cap or a label only (N-terminal biotin on a linker: ttds)

The next assay has as its target T1, PDZD2_5, O15018.
T1 sequence (O15018 2617-2716, limits assumed, looked up): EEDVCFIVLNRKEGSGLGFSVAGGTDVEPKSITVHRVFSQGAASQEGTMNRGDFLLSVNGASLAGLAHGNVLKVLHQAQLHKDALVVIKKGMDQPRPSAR

The target of a further assay is T2, CNKSR1, Q969H4.
T2 sequence (Q969H4 191-295, limits assumed, looked up): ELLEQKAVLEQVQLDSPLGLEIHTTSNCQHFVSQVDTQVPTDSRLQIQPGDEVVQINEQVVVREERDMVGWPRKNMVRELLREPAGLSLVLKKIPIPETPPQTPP

In a further assay the target is T3, SHROOM2, Q13796.
T3 sequence (Q13796 21-118, limits assumed, looked up): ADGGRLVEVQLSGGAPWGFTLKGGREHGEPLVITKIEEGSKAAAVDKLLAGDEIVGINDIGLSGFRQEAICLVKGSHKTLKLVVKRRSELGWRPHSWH

The target of another assay is T4, MPDZ_6, O75970.
T4 sequence (O75970 1003-1099, limits assumed, looked up): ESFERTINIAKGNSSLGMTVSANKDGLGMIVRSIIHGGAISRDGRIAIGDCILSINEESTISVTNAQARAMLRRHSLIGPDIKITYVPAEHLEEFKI

The next assay addresses T5, APBA2_2, Q99767.
T5 sequence (Q99767 654-744, limits assumed, looked up): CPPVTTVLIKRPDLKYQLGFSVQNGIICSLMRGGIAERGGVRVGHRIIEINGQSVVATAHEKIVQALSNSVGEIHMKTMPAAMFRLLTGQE

In the next assay the target is T6, USH1C_2, Q9Y6N9.
T6 sequence (Q9Y6N9 206-303, limits assumed, looked up): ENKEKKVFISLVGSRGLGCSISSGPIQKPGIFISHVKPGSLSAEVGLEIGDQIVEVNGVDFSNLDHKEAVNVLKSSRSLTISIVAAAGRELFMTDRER

A further assay deals with T7, SHANK3, Q9BYB0.
T7 sequence (Q9BYB0 641-750, limits assumed, looked up): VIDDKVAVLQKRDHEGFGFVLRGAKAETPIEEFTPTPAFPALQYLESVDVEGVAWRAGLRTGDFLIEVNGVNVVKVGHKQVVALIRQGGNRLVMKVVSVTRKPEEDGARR

In a further assay the target is T8, MPDZ_11, O75970.
T8 sequence (O75970 1720-1817, limits assumed, looked up): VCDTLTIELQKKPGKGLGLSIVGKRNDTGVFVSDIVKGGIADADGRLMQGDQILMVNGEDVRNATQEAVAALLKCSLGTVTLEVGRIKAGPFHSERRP

The target of another assay is T9, PREX2_2, Q70Z35.
T9 sequence (Q70Z35 672-764, limits assumed, looked up): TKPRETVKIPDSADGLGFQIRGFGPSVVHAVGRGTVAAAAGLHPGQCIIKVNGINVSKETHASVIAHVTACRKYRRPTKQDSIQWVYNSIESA

The target in the next assay is T10, SIPA1L3, O60292.
T10 sequence (O60292 961-1052, limits assumed, looked up): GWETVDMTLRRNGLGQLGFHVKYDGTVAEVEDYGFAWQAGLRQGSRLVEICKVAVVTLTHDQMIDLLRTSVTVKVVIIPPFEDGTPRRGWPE

Another assay has as its target T11, SHANK2, Q9UPX8.
T11 sequence (Q9UPX8 621-730, limits assumed, looked up): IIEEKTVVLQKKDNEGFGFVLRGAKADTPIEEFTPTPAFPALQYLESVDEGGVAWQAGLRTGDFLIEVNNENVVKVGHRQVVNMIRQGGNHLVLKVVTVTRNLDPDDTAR

For the next assay, the target named is T12, MPDZ_3, O75970.
T12 sequence (O75970 372-473, limits assumed, looked up): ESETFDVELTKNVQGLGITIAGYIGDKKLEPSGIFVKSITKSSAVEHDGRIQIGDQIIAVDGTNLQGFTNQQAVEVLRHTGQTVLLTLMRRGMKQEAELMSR

The target of another assay is T13, NHERF3_2, Q5T2W1.
T13 sequence (Q5T2W1 129-225, limits assumed, looked up): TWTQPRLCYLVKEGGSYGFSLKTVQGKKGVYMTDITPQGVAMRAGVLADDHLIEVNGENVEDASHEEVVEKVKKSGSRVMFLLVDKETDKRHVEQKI

The target of another assay is T14, USH1C_1, Q9Y6N9.
T14 sequence (Q9Y6N9 82-179, limits assumed, looked up): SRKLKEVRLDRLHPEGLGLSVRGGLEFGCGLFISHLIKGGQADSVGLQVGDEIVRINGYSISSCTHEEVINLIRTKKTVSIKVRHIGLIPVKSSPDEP

Two molecules from PMC9482650, “Quantitative fragmentomics allow affinity mapping of interactomes” (Nature Communications, 2022) can be followed below.

As a reminder, the pKd is −log10 of the Kd, conventionally taken in molar units.

Chain of PARD3B_2, Q8TEW8 (Q8TEW8 376-471): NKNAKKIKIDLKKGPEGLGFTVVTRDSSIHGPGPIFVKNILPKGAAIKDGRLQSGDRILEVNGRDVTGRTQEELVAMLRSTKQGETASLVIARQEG
Chain of SCRIB_4, Q14160 (Q14160 1095-1204): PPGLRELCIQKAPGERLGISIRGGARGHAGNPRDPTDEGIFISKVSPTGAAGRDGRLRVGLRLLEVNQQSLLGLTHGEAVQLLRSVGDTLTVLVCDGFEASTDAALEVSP
Chain of LMO7, Q8WWI1 (Q8WWI1 1037-1138): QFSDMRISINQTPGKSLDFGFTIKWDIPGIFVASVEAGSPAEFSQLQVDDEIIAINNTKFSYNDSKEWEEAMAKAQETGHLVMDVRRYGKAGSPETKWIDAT
Chain of MAGI3_5, Q5TCQ9 (Q5TCQ9 847-941): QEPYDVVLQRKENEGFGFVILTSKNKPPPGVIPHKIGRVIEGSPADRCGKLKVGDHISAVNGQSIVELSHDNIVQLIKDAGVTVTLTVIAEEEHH
Chain of CNKSR3, Q6P9H4 (Q6P9H4 203-303): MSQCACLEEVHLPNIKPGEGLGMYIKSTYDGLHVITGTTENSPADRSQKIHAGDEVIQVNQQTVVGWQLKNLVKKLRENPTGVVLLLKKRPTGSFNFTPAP
Chain of PDZD9, Q8IXQ8 (Q8IXQ8 23-120): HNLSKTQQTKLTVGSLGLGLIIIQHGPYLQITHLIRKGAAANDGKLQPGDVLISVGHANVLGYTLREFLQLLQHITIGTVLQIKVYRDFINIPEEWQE
Chain of PARD3_1, Q8TEW0 (Q8TEW0 264-372): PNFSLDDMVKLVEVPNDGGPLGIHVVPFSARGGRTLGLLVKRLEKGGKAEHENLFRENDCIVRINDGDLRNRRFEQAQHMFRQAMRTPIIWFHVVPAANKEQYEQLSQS
Chain of MAGI1_5, Q96QZ7 (Q96QZ7 986-1098): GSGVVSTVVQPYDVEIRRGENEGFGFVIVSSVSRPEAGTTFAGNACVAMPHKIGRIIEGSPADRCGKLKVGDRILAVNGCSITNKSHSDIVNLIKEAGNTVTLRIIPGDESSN
Chain of MAGI1_6, Q96QZ7 (Q96QZ7 1146-1238): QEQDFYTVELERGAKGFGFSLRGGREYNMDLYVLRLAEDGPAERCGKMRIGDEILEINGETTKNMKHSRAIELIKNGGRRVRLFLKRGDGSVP

Take KLVIKTETTV [RASSF6, Q6ZTQ3]: the pKd result in the assay with MAGI3_5, Q5TCQ9 was “below the threshold”; in the assay with PARD3_1, Q8TEW0, “below the threshold”; with PDZD2_5, O15018, “below the threshold”; in the assay with PARD3B_2, Q8TEW8, “below the threshold”; with CNKSR1, Q969H4, “below the threshold”; with SHROOM2, Q13796 it was “below the threshold”. The negative-log Kd (pKd) entry in the assay with MPDZ_6, O75970 is “below the threshold”; with APBA2_2, Q99767, “below the threshold”; in the assay with USH1C_2, Q9Y6N9, “below the threshold”; in the assay with SHANK3, Q9BYB0, “below the threshold”; in the assay with PDZD9, Q8IXQ8, “below the threshold”; in the assay with MAGI1_5, Q96QZ7, 4.23. For the same molecule, the pKd entry in the assay with MPDZ_11, O75970 is on record as “below the threshold”; with PREX2_2, Q70Z35 it was “below the threshold”; with SIPA1L3, O60292, “below the threshold”; with SHANK2, Q9UPX8, “below the threshold”; in the assay with LMO7, Q8WWI1 it was “below the threshold”; in the assay with CNKSR3, Q6P9H4, “below the threshold”. The pKd result in the assay with MPDZ_3, O75970 is on record as “below the threshold”; with SCRIB_4, Q14160, “below the threshold”; with NHERF3_2, Q5T2W1 it was “below the threshold”; with USH1C_1, Q9Y6N9 it was “below the threshold”; in the assay with MAGI1_6, Q96QZ7, “below the threshold”.

For the molecule PSRDRKETSI [RALBP1, Q15311], the pKd result in the assay with MAGI3_5, Q5TCQ9 was “below the threshold”; with PARD3_1, Q8TEW0 it was “below the threshold”; with PDZD2_5, O15018, “below the threshold”; in the assay with PARD3B_2, Q8TEW8, 3.74; in the assay with CNKSR1, Q969H4, “below the threshold”; in the assay with SHROOM2, Q13796 it was “below the threshold”. The negative logarithm of the Kd (pKd) result in the assay with MPDZ_6, O75970 is reported as “below the threshold”; with APBA2_2, Q99767, “below the threshold”; in the assay with USH1C_2, Q9Y6N9, “below the threshold”; in the assay with SHANK3, Q9BYB0, “below the threshold”; in the assay with PDZD9, Q8IXQ8 it was “below the threshold”; with MAGI1_5, Q96QZ7, “below the threshold”. The pKd entry in the assay with MPDZ_11, O75970 was “below the threshold”; with PREX2_2, Q70Z35, “below the threshold”; with SIPA1L3, O60292, “below the threshold”; with SHANK2, Q9UPX8, “below the threshold”; with LMO7, Q8WWI1 it was “below the threshold”; in the assay with CNKSR3, Q6P9H4, “below the threshold”. Further, the pKd result with MPDZ_3, O75970 is reported as “below the threshold”; with SCRIB_4, Q14160, “below the threshold”; with NHERF3_2, Q5T2W1, “below the threshold”; with USH1C_1, Q9Y6N9 it was “below the threshold”; with MAGI1_6, Q96QZ7 it was “below the threshold”.
